Experimental findings from a protein production outcome set (Wang et al. 2014) are described below.

A short description of this data set: label from the status in PepcDB records.
Take “MTLAPPLPHSNSPCSPCCMDPLLRHGFCLDMSGEIYPVIRLPCSGAAKGVHVMIRFIVKLLLCALVLLPLPAFATSGADTGPDNRLLRMGVRAHGGFTRLSMAFERDIAPVLHQLSGNRVRLVFSNTVGGRWKKLRSYRDAHVEGVVVAPRGNDLMVTVTIKGDPRGVRVSTSPGAGVVSLDVGASLAPRRSPPLAQGREGIKVGVEQLITTFDPPFKSEIPFTPTDRRVLEAMVPPAEAALIMDGEAALYEGNGSEAAEIFAGIGTNSPGRPLALYRLGEANYLLQKYGDALRFFREAERQWPVFLTRSPSTAFCYADSVARSGDLAGGRRLLGSLIAGLADKKYAPALLVRMADILARQGKDQEALAIYRNVADNFTGSKGSWQARMKLADRRLLALEPAAYSSLVKDYLEIYERGTDFGLREQGLFKAALLLSLYGDADQAFARVAEYEKKFPRGMYVSIAKGMREELLVPVYRRITRAGDNEALVKLALENRDYLGRVLAEDDFIKNLSAAFADLGRIKEEVGLYANLAIREQNRVYAPELYRRILHDAEQLGDPTLMEKAAGEFVERFPAHPWVQRFREELAAVEYNRGDFQRVVGRLSGMLASGTRPEYAESLYYLGKSLDASGNRRDAERAMLLFLAELRRREMSSPLAADASYVAATARLSRGDRKGAKEILRAAGEASPEERDPFLYKLGEIARSEGRYEEAAHYLRTVVKEGKDPDWRDMASRLLADMELTGMVRKSK”: the protein production result is “failed”.

Take “MSNVSSETVNLNNTSIVHMNMSNVTKLTASNYIMWSRQVHALLHGYGLTQYLDATKAAPAREITVNDVASVNPEYEAWSRQDQLIFSALIGTLSLTVQPTVSRAATSADVWATLAGTYAKPSRGHIKQLQHQIKQWKKDTRTIDEYVQGFINRFDQLALIGKIIDHEDQVDYILGGLPEDYKPIVDQMEGRDTPPNGCLTNSCDEDGCFIQMALNSV”: the protein production result is recorded as “failed”.

With “LPRQIAATVDLNSHGAGEHLDEQVIHCAHDLALQCNAELHLLHVCDAAKTHIADFGAGTVTMPGFDSSVRTAQRAAFNRLGDHHQIPLERRHFLEGAAIRAIAQFVGHNRVDVIVMGSHRHDAMQTFLGGTTAHVLEHPLCNVLAIKAVR”, the protein production result is on record as “failed”.

Regarding “MFFGLTLGTAVATGGRDSTLKRAAPQASCMDVHNVTAEAETFTCNAYLATGEQTTLVDAGAMRGVVDVIREHADALDAVVLTHQHGDHVQRLDTVLDAFDAPLYAYGSHPRRDHALADGDTLTVGDEECEVVYTPGHADDHVSLVSESALFSGDVVVHDDGAFDDGSFGRTDRPGQSRERLIESIERILDRMPAGVEHMYSGHGGVFHGDVREVVERALERAERREPKYPDD”, the protein production entry is “failed”.

As to “MKHTIGILGGMGPAATADMLEKFVELRHASCDQQHIPLIVSSIPDIPDRTACLLSGGPSPYRYLERYLHMLEDAGAECIVIPCNTAHYWFDDLQNVAKARMISILDATLGDIPPSARHVGLLATNATLATGLYQKKALARGLTLIQPEDAGQALVMQAIYTLKRGDKTAAQALLLPQIDSLIARGAQAIIMGCTEIPLIVAGHERAIACPMIDSTASLVRAAIRWYESWPDTRASLTGEQRLTA”, the protein production result is on record as “not failed”.

As to “MKRNNKSAIALIALSLLALSSGAAFAGHHWGNNDGMWQQGGSPLTTEQQATAQKIYDDYYTQTSALRQQLISKRYEYNALLTASSPDTAKINAVAKEMESLGQKLDEQRVKRDVAMAQAGIPRGAGMGYGGCGGYGGGYHRGGGHMGMGNW”, the protein production entry is listed as “not failed”.

With “MTVWDRPEPPHRPVPLDRERIVAAAVALADEGGLTAVSVRKVAARLDAGPMRLYGFISTKDELFDLMVDAVYAEILPEERAGDWREALRVLAHRTRQAALRHPWLADLLGGRPALGPNGLAVAEATLAALDGLADVDTVMRAVETVSSYFTGAVRREIADLRAERATGLSKPEWQREHGPHLTRMLATGRYPALAKAVHDGTHVDAEESFATGLDWVLDAVAVRLARPPGS”, the protein production result is “not failed”.

For the sequence “FPIPLPYCWLCRALIKRIQAMIPKGALAVAVAQVCRVVPLVAGGICQCLAERYSVILLDTLLGRMLPQLVCRLVLRCSM”, the protein production result was “failed”.

In the case of “MPLRLDIKRKLTAMSDRVKSVDLHPTEPWMLASLYNGSVCVWNHETQTLVKTFEVCDLPVRAAKFVARKNWVVTGADDMQIRVFNYNTLERVHMFEAHSDYIRCIAVHPTQPFILTSSDDMLIKLWDWDKKWSCSQVFEGHTHYVMQIVINPKDNNQFASASLDRTIKVWQLGSSSPNFTLEGHEKGVNCIDYYSGGDKPYLISGADDRLVKIWDYQNKTCVQTPEGHAQNVSCATFHPELPIIITGSEDGTVRIWHSSTYRLESTLNYGMERVWCVASLRGSNNVALGYDEGSIIVKLGREEPAMSMDANGKIIWAKHSEVQQANLKAMGDTEIKDGERLPLAVKDMGSCEIYPQTIQHNPNGRFVVVCGDGEYIIYTAMALRNKSFGSAQEFAWAHDSSEYAIRESNSVVKIFKNFKEKKSFKPDFGAESIYGGFLLGVRSVNGLAFYDWENTELIRRIEIQPKHIFWSDSGELVCIATEESFFILKYLSEKVLAAQETHEGVTEDGIEDAFEVLGEIQEIVKTGLWVGDCFIYTSSVNRLNYYVGGEIVTIAHLDRTMYLLGYIPKDNRLYLGDKELNIVSYSLLVSVLEYQTAVMRRDFSMADKVLPTIPKEQRTRVAHFLEKQGFKQQALTVSTDPEHRFELALQLGELKIAYQLAVEAESEQKWKQLAELAISKCQFSLAQECLHHAQDYGGLLLLATASGNASMVNKLAEGAERDGKNNVAFMSYFLQGKLDACLELLIRTGRLPEAAFLARTYLPSQVSRVVKLWRENLSKVNQKAAESLADPTEYENLFPGLKEAFVVEEWVKETHADLWPAKQYPLVTPNEERNVMEEAKRFQPSRATAQQEPDGKPASSPVIMASQTTHKEEKSFQELEDDLDTMELEDIDTTDINLDEDILDD”, the protein production result was “failed”.

With “MCSKQSANQQISYRQTAEATLDKGMDNQPEAPYWFPKQLLKWQLSKDKAAKYNTASVPLAKRIDKWQLPTVNKTQDPKMKVVALSIMNSSTSGNAPRGINTFDANVFSNWQYIDQLVYWGGSAGEGLIVPPTADVIDSAHKNGVPVLGTVFFPQVVSGGKLKWLNDFLKQDADGHFPMADKLVAVAKAYGFDGWFINQETDPEVKSFDSASTGKTATSSTSNGLSKKHAQLMQQLIKEYKQKAGSKLDLMWYDSMTKDGKMDWQNALTKENQSYLVDANMKPVADSMFLNFWWTKKRLASQELLKKSHERAEKLGISPYNLFAGIDVQADGTATPVRWNLFANKQHVPYTSLGLYAPDWTHASSDTVDEFQAKEGALWVNDQNDPSRSIPSTTSTHWPGVSTYAVEQSAITKQPFVTNFSLGNGYNYFIKLEHHHHHH”, the protein production entry was “failed”.

Consider “MSLEKLDTNTFEQLIYDEGKACLVMFSRKNCHVCQKVTPVLEELRLNYEESFGFYYVDVEEEKTLFQRFSLKGVPQILYFKDGEYKGKMAGDVEDDEVEQMIADVLED”, for which the protein production result was “not failed”.

With “MKKNHVVIGVIIVAALALLFTLSIQIARLILGDGPMVSSGEGVGYVEVKGPILESEEIVKQLSEMRKKTNVKAVVLRIESPGGVIGPSQEIYEAVKKLAKTKKVVVSMGSVAASGGYHIAIPAAVIYANPGTITGSIGVLMKLANVEGLMDKVGMKAFTLKSGKFKDAGSPVRALTDEDRALLQGVIDNLHTQFVKAVAEARKLPVEEVRRLADGRVYTGEQAVSLKLVDRLGTLEDAVEEAGRLAGIKGEPTLLMPPKKRKHLRDYLLEEASGFFREIVRREGGFSVNYELDPAVGNGGRLEHHHHHH”, the protein production result is “not failed”.

For the sequence “MWVYRLKGTLEALDPILPGLFDGGARGLWEREGEVWAFFPAPVDLPYEGVWEEVGDEDWLEAWRRDLKPALAPPFVVLAPWHTWEGAEIPLVIEPGMAFGTGHHETTRLALKALARHLRPGDKVLDLGTGSGVLAIAAEKLGGKALGVDIDPMVLPQAEANAKRNGVRPRFLEGSLEAALPFGPFDLLVANLYAELHAALAPRYREALVPGGRALLTGILKDRAPLVREAMAGAGFRPLEEAAEGEWVLLAYGR”, the protein production entry was “not failed”.

For “MNRRKISALLLSCTLAMNISSFNEIVLADENKGEEVQKESHNESNCIAGDYHEVNNGNAKNTENTPVINGIKVNKQLIDINYSQGVTINPKYIVIHDTDNRQAGANAMANRNYFANHPNAKASAHYIIDEGNIIQALEDTWKGWHVGDGNNPNINNSTTIAIELCVNKENDFDKTLENGIELTKYLVNKYNIPAENVVMHRDASGKTCSRMMIEDRPSLWPYFKERISGGDGSLEDDGLKPKMQGKVTNASVLNVRESPSTSGRIVHKLNRNQVVGIYEELNGWYKIDYIDGVKKKYGYVSKDYISIINENPEDEETNGDIEIEKPSVSVNKQGIVKVNSALNMRSGPGSNYGVIGTLRNNDEVEIIKEVDGWYEIKFNGKSGYVSSQYIKVLDNESNEEKPVEPEKPSVSLNKQGVVKVNSALNMRSGPGSNYGVIGTLRNNDEVEIIKEVDGWYEIKFNGKSGYVSSQYIKVLDNESNEEKPVEPEKPSVSLNKQGVVKVNSALNMRSGPGSNYGVIGTLRNNDKVEIIKEVDGWYEIRFNGKVGYASKSYITIVNEGSNNGTDSVIKEGTVYGVSTNLNVRTGPGTSYQVIGYLLSGDKVKILGDENGWYKVQFNASTGTKNGYVSKDYIKV”, the protein production entry was “failed”.

With “MLMKVAEFERLFRQAAGLDVDKNDLKRVSDFLRNKLYDLLAVAERNAKYNGRDLIFEPDLPIAKGLQETLQEFRRMDTALELKPVLDALAALPPLDLEVAEDVRNLLPELAGALVVAYARVLKELDPALKNPQTEHHERAERVFNLLL”, the protein production entry is given as “not failed”.

On to “MAIDVCCSEASGSGISPRISFSYDLDSTDDGEVRLDSTLLDSGSEFDFCFGSSCSVQEVSPADELFSEGKILPVQIKKEESLPQTVTFRVPRSASLSSSSSSSSSSSSSSRAPEKKMRLKELLLNPESDFEDKPRGLFLQFKRSISLNYDKSRNSKGLIRSFHFLSRSNSTPNPNLDLLPKETHHPHKTHNLPKHKPPLRRSSSLSSSSVPFYSKKPLGRNSFGNGNGGVRVSPVLNFPPPAFISNVADGFFSIGSLCNGKTNTKTKL”, for which the protein production result was “failed”.

As to “MIAMVNDGGLALDRPTAAAIVGLFAGSMYLMTVFGGWVADNWLGQARAIWYGSIIIALGHLSIALTSVFDQSFFYLGLVLIVLGTGLFKTCISVIVGTLYKANDARRDAGFSIFYMGINMGSFIAPLITGLLAKDHGWHLGFGIGGIGMLIALLIFRFMAMPQLQTFNELRQEANSCSKPVVENKNAPKIVFSFLFAVAVVIALTFLGIIHINPVAVATYLTVGISIGIIAYFAYLLLFLNLEQHEKFKIIICFVLLAASALFWSAFEQKPTTFTLFAQDYTDRIVFGFEIPTVWFESINALFIIIFAPVAAWLWAKLGKANKDPSYISKFIIALLFAAGGFLLMSLASHFAIHGGVVSPFWLVGTLFLLTIGELCLSPIGLSTMTKLAPDVIRSQIMGLWFTGTALGNLMAGLIGGQVSADGINHLPSLFMRCVLALVIGAIVLFLLKKPMNKLMDKSTNKVQPDLETI”, the protein production result is “failed”.

As for “MTFLIPAYNEEKSIGPLIDRIKMLCPDSEIIVVDNNSSDRTSEIATSRGVRVIFEGKQGKANAMVAAFRNTRTEYAVMMDADLTYLPDDSRVLVEVLKAEGADVVLGSRLNGEKEDGAISRINTVGNHILSFTASILYSPVSDVCTGHWAFNRRAIRHILEEGLNYSGFELEAEMFSKLARAGLKIVEVPITYRKRSDEPKLSSFTDGFKIFRTLVLERLRLEHHHHHH”, the protein production result is “failed”.

On to “DLEVHGDKDDAELLIIGWGGTYGHLYETMERMRNAGKKVALAHFRFINPLPKNTAEVLQRYPKAVVAEQNLGQFALYLRGEVPGFHPLQFNRVTGQPLVMSEMVEVFTQMMEEK”, for which the protein production entry is recorded as “failed”.
